# From patent US20250382363A1 (NUMAB THERAPEUTICS, published 2025)
# Residue numbers refer to the chain shown, from its start. Numbers in names are those of the source.
# B1: PRO2936 (scFv 54-21-H03-sc01_(T101S, T146Q)) (scFv)
# scFv: DIQMTQSPSSLSASVGDRVTITCQASESIYSSLAWYQQKPGKAPKLLIYLASTLASGVPSRFSGSGSGTDFTLTISSLQPEDFATYYCQSTDYTTSTHRNSFGTGTKVTVLGGGGGSGGGGSGGGGSGGGGSEVQLVESGGGLVQPGGSLRLSCAASGFSFSTTYYMCWVRQAPGKGLEWIGCTNTASSVRTYYATWAKGRFTISRDNSKNTVYLQMNSLRAEDSAVYYCARDMGFADYALNLWGQGTLVQVSS
# notes: PRO1922 variant; VH substitutions, AHo numbering; also called PRO1922 T101S-T146Q
# B2: PRO2937 (scFv 54-21-H03-sc01_(T101S, L144A, T146Q)) (scFv)
# scFv: B1 scFv with L249A
# notes: PRO1922 variant; VH substitutions, AHo numbering; also called PRO1922 T101S-L144A-T146Q
# B3: PRO2938 (scFv 54-21-H03-sc01_(L12A, T101S, L144A, T146Q)) (scFv)
# scFv: B1 scFv with L143A, L249A
# notes: PRO1922 variant; VH substitutions, AHo numbering; also called PRO1922 L12A-T101S-L144A-T146Q
# B4: PRO2941 (scFv 54-21-H03-sc01_(T146K)) (scFv)
# scFv: B1 scFv with S225T, Q251K
# notes: PRO1922 variant; VH substitution, AHo numbering; also called PRO1922 T146K
# B5: PRO2942 (scFv 54-21-H03-sc01_(T146R)) (scFv)
# scFv: B1 scFv with S225T, Q251R
# notes: PRO1922 variant; VH substitution, AHo numbering; also called PRO1922 T146R
# B6: PRO2943 (scFv 54-21-H03-sc01_(T146E)) (scFv)
# scFv: B1 scFv with S225T, Q251E
# notes: PRO1922 variant; VH substitution, AHo numbering; also called PRO1922 T146E
# B7: PRO2944 (scFv 54-21-H03-sc01_(T146Q)) (scFv)
# scFv: B1 scFv with S225T
# notes: PRO1922 variant; VH substitution, AHo numbering; also called PRO1922 T146Q
# B8: PRO2945 (scFv 54-21-H03-sc01_(T101R)) (scFv)
# scFv: B1 scFv with S225R, Q251T
# notes: PRO1922 variant; VH substitution, AHo numbering; also called PRO1922 T101R
# B9: PRO2946 (scFv 54-21-H03-sc01_(T101S)) (scFv)
# scFv: B1 scFv with Q251T
# notes: PRO1922 variant; VH substitution, AHo numbering; also called PRO1922 T101S
# B10: PRO2990 (scFv 54-21-H03-sc01_(L12S, V103T, L144T)) (scFv)
# scFv: B1 scFv with L143S, S225T, V227T, L249T, Q251T
# notes: VH substitutions, AHo numbering; also called PRO1922-L12S-V103T-L144T
# B11: PRO2991 (scFv 54-21-H03-sc01_(T101A)) (scFv)
# scFv: B1 scFv with S225A, Q251T
# notes: PRO1922 variant; VH substitution, AHo numbering; also called PRO1922 T101A
# B12: PRO2992 (scFv 54-21-H03-sc01_(T146A)) (scFv)
# scFv: B1 scFv with S225T, Q251A
# notes: PRO1922 variant; VH substitution, AHo numbering; also called PRO1922 T146A
# Target: pre-existing anti-drug antibodies (ADA) present in human sera
# Test: pre-existing ADA ELISA, scFv coated, human sera unspiked vs spiked
Binder,Mean No of serum samples >30% inhibition (30% CCP) with SCP (serum samples),No of serum samples >30% inhibition (30% CCP) without SCP (serum samples)
B1,1,4
B2,0,5
B3,0,0
B4,0,0
B5,1,6
B6,2,4
B7,3,3
B8,0,0
B9,6,9
B10,4,5
B11,0,0
B12,3,4

# Target: T1, human a-Mesothelin (Acro Biosystems; MSN_H5223) (human, UniProt Q13421 296-580, limits assumed)
# T1 construct: Bought protein immobilised on the SPR chip; Printed as 'a-Mesothelin' but used as the antigen for the anti-MSLN scFvs; also called Human MSLN; MSLN
# T1 sequence (Q13421 other isoform, or with tags, fused parts or gaps limits assumed): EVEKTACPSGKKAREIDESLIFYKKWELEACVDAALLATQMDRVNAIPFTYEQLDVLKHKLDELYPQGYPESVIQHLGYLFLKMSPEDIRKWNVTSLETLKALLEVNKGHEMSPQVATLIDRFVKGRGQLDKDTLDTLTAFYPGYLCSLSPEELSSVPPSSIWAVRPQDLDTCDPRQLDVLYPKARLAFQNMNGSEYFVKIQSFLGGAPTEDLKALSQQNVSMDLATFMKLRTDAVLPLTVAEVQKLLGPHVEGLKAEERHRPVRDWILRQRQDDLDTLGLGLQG
# Test: SPR, mesothelin immobilised, scFv analyte, 1:1 fit
# Description: The mutation variants were then injected at concentrations of 10 nM, 2 nM and 0.4 nM over the ligand-immobilized and reference spots. The wild type variants were used as a control, while an empty spot was used as reference.
# After each cycle with analyte, the surface was regenerated with a 3M MgCl₂ solution, thereby allowing the next analyte cycle to have only free ligand available. Binding affinity KD was globally calculated by the Bruker SPR software based on the binding association (kₒₙ) and dissociation (Koff) rate, by fitting a 1:1 Langmuir model to the curves obtained by the cycles with the three different concentrations of the analyte.
Binder,Kd [nM],n-fold to wt [fold]
B1,0.66,0.4
B2,1.9,1.1
B3,1.6,0.9
B4,1.9,1.1
B5,1.3,0.7
B6,3.3,1.8
B7,1.8,1
B8,3,1.7
B9,3.2,1.8
B10,1.5,0.8
B11,2.9,1.6
B12,1.7,0.9
